Sequences and labels used below:
B1: variant CD80 IgV-Fc E35D/T41S/D46E/M47I/V68M/K93R/E95V (Fc fusion, not shown: small tags and cut ends; a dimerising Fc or GST)
chain: VIHVTKEVKEVATLSCGHNVSVEELAQTRIYWQKDKKMVLSMMSGEINIWPEYKNRTIFDITNNLSIMILALRPSDEGTYECVVLKYEKDAFRRVHLAEVTLSVKAD
B2: variant CD80 IgV-Fc H18Y/V22D/E35D/M47V/N48K/V68M (Fc fusion, not shown: small tags and cut ends; a dimerising Fc or GST)
chain: B1 chain with H18Y, V22D, S41T, E46D, I47V, N48K, R93K, V95E
B3: variant CD80 IgV-Fc H18Y/E35D/V68M/T79M/L85M (Fc fusion, not shown: small tags and cut ends; a dimerising Fc or GST)
chain: B1 chain with H18Y, S41T, E46D, I47M, T79M, L85M, R93K, V95E
B4: variant CD80 IgV-Fc E35D/M47V/N48K/V68M/L85M (Fc fusion, not shown: small tags and cut ends; a dimerising Fc or GST)
chain: B1 chain with S41T, E46D, I47V, N48K, L85M, R93K, V95E
B5: variant CD80 IgV-Fc E35D/M47V/N48K/V68M/A71G/L85M (Fc fusion, not shown: small tags and cut ends; a dimerising Fc or GST)
chain: B1 chain with S41T, E46D, I47V, N48K, A71G, L85M, R93K, V95E
B6: E24D/Q27R/E35D/T41S/M47V/L85Q CD80 IgV-Fc (Fc fusion, not shown: a dimerising Fc or GST)
chain: B1 chain with E24D, Q27R, E46D, I47V, M68V, L85Q, R93K, V95E
B7: Q33R/M47V/T62N/A71G CD80 IgV-Fc (Fc fusion, not shown: a dimerising Fc or GST)
chain: B1 chain with Q33R, D35E, S41T, E46D, I47V, T62N, M68V, A71G, R93K, V95E
B8: E35D/D46E/M47L/V68M/L85Q/F92L CD80 IgV-Fc (Fc fusion, not shown: a dimerising Fc or GST)
chain: B1 chain with S41T, I47L, L85Q, F92L, R93K, V95E
B9: E35D/M47L/V68M/A71G/L85Q/D90G CD80 IgV-Fc (Fc fusion, not shown: a dimerising Fc or GST)
chain: B1 chain with S41T, E46D, I47L, A71G, L85Q, D90G, R93K, V95E

Numbering of substitutions follows the chain as printed. In names and notes the source's numbering stands.

T6 sequence (P16410 36-223): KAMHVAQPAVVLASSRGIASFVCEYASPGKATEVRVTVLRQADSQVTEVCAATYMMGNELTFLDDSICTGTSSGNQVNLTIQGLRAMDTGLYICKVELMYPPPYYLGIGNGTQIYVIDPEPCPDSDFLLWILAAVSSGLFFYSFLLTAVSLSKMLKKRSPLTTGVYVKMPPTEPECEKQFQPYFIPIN
T5 sequence (Q9NZQ7 19-290): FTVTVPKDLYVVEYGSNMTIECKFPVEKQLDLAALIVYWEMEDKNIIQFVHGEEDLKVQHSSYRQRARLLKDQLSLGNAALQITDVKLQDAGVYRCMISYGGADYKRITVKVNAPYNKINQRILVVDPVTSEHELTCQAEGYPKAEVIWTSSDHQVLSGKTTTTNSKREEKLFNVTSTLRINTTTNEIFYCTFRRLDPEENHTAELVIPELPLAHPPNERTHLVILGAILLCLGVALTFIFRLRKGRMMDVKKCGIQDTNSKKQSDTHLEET
T2 sequence (Q9NZQ7 19-290): as above

The target in the first experiment is T1, CD28, endogenously expressed on Jurkat/IL2 reporter cells (human, UniProt P10747 19-220).
T1 construct: whole, on cells
Briefly: flow cytometry, Jurkat/IL2 reporter cells (endogenous CD28); MFI against WT CD80 of the table. Background: Flow cytometry measures light scatter and fluorescence of single cells or particles in a stream.
B1: the “Fold change to WT CD80” value turned out to be 15.2 fold.
The same measure, in the same setting: then B2, with 8.2 fold; and B3, with 33.2 fold.
The same measure, in the same setting: with B4 the figure was 7.8 fold; with B5, 9.6 fold.

The target of a further experiment is T1, CD28, endogenously expressed on …. As to the kind of experiment: flow cytometry, Jurkat/IL2 reporter cells (endogenous CD28).
For the molecule B1, the “MFI at 33.3 nM” value came out at 476 MFI.
Take B2: the “MFI at 33.3 nM” value is 257 MFI.
The same measure, in the same setting: then B3, with 1040 MFI; and B4, with 245 MFI.
The same measure, in the same setting: with B5 the figure was 302 MFI.

A further experiment addresses T2, human PD-L1 (huPD-L1), full-length, stably expressed on CHO cells (human, UniProt Q9NZQ7 19-290).
T2 construct: whole, on cells
Briefly: flow cytometry; MFI on PD-L1 CHO cells over MFI on Jurkat cells (CD28).
For the molecule B1, the “Ratio of PDL1:CD28” value worked out at 31.1 ratio.
Same read-out and setting: with B2 the figure was 50.1 ratio; with B3, 14.3 ratio; with B4, 31.1 ratio.
As to B5, the “Ratio of PDL1:CD28” value came out at 75.4 ratio.

For another experiment, the target named is T3, human CTLA-4 (human, UniProt P16410 36-223).
T3 construct: whole, on cells; also called huCTLA4
T3 sequence (P16410 36-223): as the sequence (P16410 36-223) above
Briefly: flow cytometry, CHO cells stably expressing huCTLA4, 33.3 nM, PE anti-human Fc.
Turning to B6, the “Fold change to WT CD80” value is 13.5 fold and the “MFI at 33.3 nM” value is 13900 MFI.
For B7, the “Fold change to WT CD80” value amounted to 0.3 fold and the “MFI at 33.3 nM” value was found to be 308 MFI.
On the same counts, the results for B8 are 0.2 fold and 214 MFI.
The corresponding values for B9 are 10.1 fold and 10300 MFI.

Another experiment deals with T4, human CD28 (human, UniProt P10747 19-220).
T4 construct: whole, on cells; Endogenous CD28 of Jurkat/IL2 reporter cells
As to the kind of experiment: flow cytometry, Jurkat/IL2 reporter cells (endogenous CD28), 33.3 nM, PE anti-human Fc.
On to B6, for which the “Fold change to WT” value turned out to be 1.6 fold and the “MFI at 33.3 nM” value stood at 66 MFI.
As for B9, the “Fold change to WT” value was 33.9 fold and the “MFI at 33.3 nM” value was 1400 MFI.

Another experiment concerns the target T2, human PD-L1 (huPD-L1), full-length, …. Briefly: flow cytometry, CHO cells expressing huPD-L1.
B1: the “MFI at 33.3 nM” value worked out at 14800 MFI.
Take B2: the “MFI at 33.3 nM” value was determined as 12900 MFI.
The same measure, in the same setting: then B3, with 14900 MFI; and B4, with 7620 MFI; and B5, with 22800 MFI.

The next experiment concerns the target T5, human PD-L1 (human, UniProt Q9NZQ7 19-290).
T5 construct: whole, on cells; also called huPD-L1
As to the kind of experiment: flow cytometry; MFI on CHO/PD-L1 over MFI on Jurkat (CD28), 33.3 nM.
As for B6, the “Ratio of PDL1:CD28” value is 44 ratio.
With B7, the “Ratio of PDL1:CD28” value was 719 ratio.
Consider B8, for which the “Ratio of PDL1:CD28” value turned out to be 863 ratio.
Same read-out and setting: then B9, with 12 ratio.

The next experiment addresses T2, human PD-L1 (huPD-L1), full-length, …. As to the kind of experiment: flow cytometry, CHO cells expressing huPD-L1; MFI against WT CD80 of the table.
Take B1: the “Fold change to WT CD80” value is 287 fold.
The same measure, in the same setting: then B2, with 250 fold; and B3, with 290 fold.
On to B4, for which the “Fold change to WT CD80” value was found to be 148 fold.
Same read-out and setting: with B5 the figure was 442 fold.

Another experiment addresses T6, human CTLA4 (huCTLA4), full-length, stably expressed on CHO cells (human, UniProt P16410 36-223).
T6 construct: whole, on cells
As to the kind of experiment: flow cytometry, CHO cells expressing huCTLA4.
On to B1, for which the “MFI at 33.3 nM” value was determined as 18400 MFI.
Same read-out and setting: then B2, with 15800 MFI; and B3, with 16300 MFI; and B4, with 15600 MFI.
The same measure, in the same setting: then B5, with 16600 MFI.

A further experiment concerns the target T6, human CTLA4 (huCTLA4), full-length, …. Briefly: flow cytometry, CHO cells expressing huCTLA4; MFI against WT CD80 of the table.
As to B1, the “Fold change to WT CD80” value was 10.5 fold.
As for B2, the “Fold change to WT CD80” value stood at 9 fold.
With B3, the “Fold change to WT CD80” value stood at 9.3 fold.
The same measure, in the same setting: then B4, with 8.9 fold; and B5, with 9.5 fold.

In the next experiment the target is T5, human PD-L1. Briefly: flow cytometry, CHO cells stably expressing huPD-L1, 33.3 nM, PE anti-human Fc.
Consider B6, for which the “Fold change to WT” value was 34.3 fold and the “MFI at 33.3 nM” value is 2860 MFI.
The corresponding values for B7 are 146 fold and 12200 MFI.
Turning to B8, the “Fold change to WT” value worked out at 158 fold and the “MFI at 33.3 nM” value is 13200 MFI.
With B9, the “Fold change to WT” value was found to be 202 fold and the “MFI at 33.3 nM” value is 16800 MFI.

These data come from patent publication US20210130436A1 (published 2021).
